Among the data in article PMC7979498 (2022) are Kd values, retold here.

The target in one assay is T1, ROS1 ECD (Homo sapiens, UniProt P08922).
T1 chain: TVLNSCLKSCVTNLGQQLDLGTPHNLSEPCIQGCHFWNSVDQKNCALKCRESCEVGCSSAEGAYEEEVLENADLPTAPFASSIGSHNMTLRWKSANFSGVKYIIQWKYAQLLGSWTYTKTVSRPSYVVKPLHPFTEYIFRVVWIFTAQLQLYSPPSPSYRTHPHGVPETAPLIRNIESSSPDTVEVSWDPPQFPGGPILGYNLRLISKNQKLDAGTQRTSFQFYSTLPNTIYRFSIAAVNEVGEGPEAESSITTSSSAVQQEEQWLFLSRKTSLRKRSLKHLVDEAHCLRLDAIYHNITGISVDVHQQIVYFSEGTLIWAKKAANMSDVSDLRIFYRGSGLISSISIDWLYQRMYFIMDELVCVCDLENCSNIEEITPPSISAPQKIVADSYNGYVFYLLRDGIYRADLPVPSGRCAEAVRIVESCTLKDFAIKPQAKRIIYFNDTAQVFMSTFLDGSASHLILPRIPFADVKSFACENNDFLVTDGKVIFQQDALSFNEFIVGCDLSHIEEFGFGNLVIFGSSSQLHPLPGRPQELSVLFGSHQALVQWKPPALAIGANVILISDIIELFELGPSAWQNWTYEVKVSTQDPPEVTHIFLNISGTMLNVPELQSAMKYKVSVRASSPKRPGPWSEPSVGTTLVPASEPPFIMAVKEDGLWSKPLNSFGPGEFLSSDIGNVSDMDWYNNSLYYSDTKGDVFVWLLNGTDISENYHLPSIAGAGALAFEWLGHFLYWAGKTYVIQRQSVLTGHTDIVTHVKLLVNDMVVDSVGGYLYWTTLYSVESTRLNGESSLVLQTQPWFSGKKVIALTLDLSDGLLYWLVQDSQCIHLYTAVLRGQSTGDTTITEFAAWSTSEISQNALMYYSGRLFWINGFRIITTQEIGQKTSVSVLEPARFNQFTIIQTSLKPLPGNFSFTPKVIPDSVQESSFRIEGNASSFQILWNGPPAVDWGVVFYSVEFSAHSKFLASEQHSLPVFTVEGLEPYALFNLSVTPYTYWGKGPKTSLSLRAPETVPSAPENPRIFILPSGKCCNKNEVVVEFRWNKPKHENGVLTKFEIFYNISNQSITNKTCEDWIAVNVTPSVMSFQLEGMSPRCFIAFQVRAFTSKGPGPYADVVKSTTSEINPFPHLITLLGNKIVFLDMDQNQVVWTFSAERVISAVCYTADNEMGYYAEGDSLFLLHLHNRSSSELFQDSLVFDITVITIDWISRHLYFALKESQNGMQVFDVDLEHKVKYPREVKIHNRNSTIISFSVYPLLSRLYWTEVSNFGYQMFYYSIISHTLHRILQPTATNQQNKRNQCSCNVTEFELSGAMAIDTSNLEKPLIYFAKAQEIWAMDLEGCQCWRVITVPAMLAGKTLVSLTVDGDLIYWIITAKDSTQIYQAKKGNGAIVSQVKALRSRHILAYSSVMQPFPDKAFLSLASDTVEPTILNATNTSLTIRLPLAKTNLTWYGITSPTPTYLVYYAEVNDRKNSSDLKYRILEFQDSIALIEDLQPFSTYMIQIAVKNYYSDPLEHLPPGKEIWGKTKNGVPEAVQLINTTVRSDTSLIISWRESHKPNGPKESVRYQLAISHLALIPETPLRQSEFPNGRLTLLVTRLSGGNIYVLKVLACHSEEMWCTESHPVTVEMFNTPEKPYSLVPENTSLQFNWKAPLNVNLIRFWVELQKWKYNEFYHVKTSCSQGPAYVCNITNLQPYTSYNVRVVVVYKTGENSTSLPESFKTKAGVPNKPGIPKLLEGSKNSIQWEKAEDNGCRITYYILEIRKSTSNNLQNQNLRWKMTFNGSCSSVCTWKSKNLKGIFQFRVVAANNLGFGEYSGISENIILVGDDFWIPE
Briefly: saturation binding assay.

A further assay has as its target T2, ROS1 (Homo sapiens, UniProt P08922).
T2 chain: T1 chain
Briefly: saturation binding assay.

B1: RNase7 (protein)
chain: KPKGMTSSQWFKIQHMQPSPQACNSAMKNINKHTKRCKDLNTFLHEPFSSVAATCQTPKIACKNGDKNCHQSHGAVSLTMCKLTSGKHPNCRYKEKRQNKSYVVACKPPQKKDSQQFHLVPVHLDRVL
B1: the Kd – broadly, the free concentration of one partner at which half of the binding sites on the other are occupied at equilibrium, for simple one-to-one binding – turned out to be 28.5 nM with ROS1 ECD and 33.5 nM in the assay with ROS1.
